Consider 1 substance from US20260055182A1.

Test [1] addresses human C1q purified protein (human) (UniProt P02745). Briefly: SPR (Biacore T200), C1q reversibly immobilised, antibody as analyte. On the technique in general: Surface plasmon resonance follows binding to a sensor surface in real time, without labels.
The target in the next test is human FcyRI/CD64 (human) (UniProt P12314). The test is described as follows: SPR (Biacore 8K+), receptor reversibly immobilised, antibody as analyte.
Test [2] deals with human FcyRIIA/CD32a (H167) (human) (UniProt P12318). The description is as above.
Test [3] addresses human FcyRIIIA/CD16a (V176) (human) (UniProt P08637). The description is as above.
Test [4] addresses human FcRn / FCGRT&B2M (human) (UniProt P55899). The test is described as follows: SPR (Biacore T200), pH 6.0, FcRn reversibly immobilised, antibody as analyte.

Sequence of human FcyRIIIA/CD16a (V176) (human) (P08637 17-208 F176V limits assumed): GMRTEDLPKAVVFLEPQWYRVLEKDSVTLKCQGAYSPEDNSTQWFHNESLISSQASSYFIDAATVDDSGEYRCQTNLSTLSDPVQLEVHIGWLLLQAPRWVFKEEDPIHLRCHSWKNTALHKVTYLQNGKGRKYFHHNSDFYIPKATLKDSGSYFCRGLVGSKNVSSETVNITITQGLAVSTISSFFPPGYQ
Sequence of human FcyRIIA/CD32a (H167) (human) (P12318 36-218): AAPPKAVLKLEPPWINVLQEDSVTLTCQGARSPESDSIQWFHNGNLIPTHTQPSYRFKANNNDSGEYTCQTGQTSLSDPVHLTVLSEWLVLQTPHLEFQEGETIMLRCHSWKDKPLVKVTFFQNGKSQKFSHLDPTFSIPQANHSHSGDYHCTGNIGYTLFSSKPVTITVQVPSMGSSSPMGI
Sequence of human FcRn / FCGRT&B2M (human) (P55899 24-297 limits assumed, chain 1 of 2): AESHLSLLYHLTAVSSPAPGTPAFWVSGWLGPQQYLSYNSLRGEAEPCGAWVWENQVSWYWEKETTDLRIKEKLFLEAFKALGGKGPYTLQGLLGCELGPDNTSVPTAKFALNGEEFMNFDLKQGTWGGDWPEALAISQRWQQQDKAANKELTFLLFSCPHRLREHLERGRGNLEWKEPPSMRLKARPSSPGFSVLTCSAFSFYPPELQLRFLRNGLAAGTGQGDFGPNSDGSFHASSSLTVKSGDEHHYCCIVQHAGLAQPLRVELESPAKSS
Sequence of human FcRn / FCGRT&B2M (human) (P61769 21-119 limits assumed, chain 2 of 2, further chain): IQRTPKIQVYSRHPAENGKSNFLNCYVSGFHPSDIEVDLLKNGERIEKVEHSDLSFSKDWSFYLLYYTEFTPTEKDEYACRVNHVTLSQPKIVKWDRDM
Sequence of human FcyRI/CD64 (human) (P12314 16-288 limits assumed): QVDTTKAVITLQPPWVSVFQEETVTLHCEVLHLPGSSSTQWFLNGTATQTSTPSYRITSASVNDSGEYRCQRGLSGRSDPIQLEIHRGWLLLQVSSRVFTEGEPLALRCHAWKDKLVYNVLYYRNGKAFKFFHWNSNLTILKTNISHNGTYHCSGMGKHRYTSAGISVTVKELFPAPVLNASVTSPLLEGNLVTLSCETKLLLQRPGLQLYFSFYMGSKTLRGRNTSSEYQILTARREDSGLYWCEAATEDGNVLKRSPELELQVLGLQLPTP
Sequence of human C1q purified protein (human) (P02745 23-245, chain 1 of 3): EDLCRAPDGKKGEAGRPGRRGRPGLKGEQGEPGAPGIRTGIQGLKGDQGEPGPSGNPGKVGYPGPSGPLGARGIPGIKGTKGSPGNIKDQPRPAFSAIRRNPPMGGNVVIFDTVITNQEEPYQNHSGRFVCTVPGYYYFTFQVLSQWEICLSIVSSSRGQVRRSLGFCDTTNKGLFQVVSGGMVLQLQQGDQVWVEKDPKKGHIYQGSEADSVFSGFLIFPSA
Sequence of human C1q purified protein (human) (P02746 28-253, chain 2 of 3, further chain): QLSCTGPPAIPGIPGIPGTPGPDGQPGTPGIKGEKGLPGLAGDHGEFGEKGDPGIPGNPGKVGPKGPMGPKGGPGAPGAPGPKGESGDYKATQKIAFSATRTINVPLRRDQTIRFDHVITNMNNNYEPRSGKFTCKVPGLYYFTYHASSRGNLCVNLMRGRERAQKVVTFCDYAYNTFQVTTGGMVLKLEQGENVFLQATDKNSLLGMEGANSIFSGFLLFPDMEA
Sequence of human C1q purified protein (human) (P02747 29-245, chain 3 of 3, further chain): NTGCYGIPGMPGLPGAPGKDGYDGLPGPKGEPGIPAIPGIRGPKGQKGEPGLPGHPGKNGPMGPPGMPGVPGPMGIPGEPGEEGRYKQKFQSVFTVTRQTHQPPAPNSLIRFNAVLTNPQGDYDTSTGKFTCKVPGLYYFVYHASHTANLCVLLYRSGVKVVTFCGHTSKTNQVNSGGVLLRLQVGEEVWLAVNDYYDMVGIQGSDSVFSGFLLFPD

Usually Kd stands for the concentration at which binding is half-saturated. Low readings indicate a tighter complex, high ones a looser complex. Take Mabthera (Rituximab) (antibody): the Kd was found to be 129 nM in test [1]; 0.0407 nM with human FcyRI/CD64 (human); 324 nM in test [2]; 57.9 nM in test [3]; 384 nM in test [4].
